Drawing on paper PMC10229621, this text covers stoichiometry N (molecules per capsid) and stoichiometry N (copies per capsid) for nine substances.

The assay addresses T4 capsid (empty HocΔSocΔ head from the 10-amber.13-amber.HocΔ.SocΔ T4 mutant) (bacteriophage T4) (UniProt P19896). Nature of the assay: co-sedimentation.

Soc-RGD returned a stoichiometry N (molecules per capsid) of 710.
Cre-Soc: the stoichiometry N (molecules per capsid) is 630.
Still for that read-out and setting: the value for Cre-Hoc was 95; that for NLS-Cas9-Soc was 550; that for β-Gal-Soc was 320.
Soc-TAT returned a stoichiometry N (copies per capsid) of 520 and a stoichiometry N (molecules per capsid) of 750.
The substance GFP-Soc yielded a stoichiometry N (molecules per capsid) of 660.
The same measure, in the same setting: under Cpf1-Soc stands 450.
On the same count and under the same terms, the value for RGD-Hoc was 85.
